# Paper PMC10680704
# Target: IGF2R ectodomain, recombinant, AlexaFlour488-labeled (UniProt P11717)
row,Substance,EC50 of mCherry uptake by K562 cells
1,"G2 mCherry GELYTAC (IGF2 E6R, F19L, S39P), recombinant",16 nM
2,"mCherry GELYTAC (original, wild-type IGF2), recombinant",101 nM
